Experiment: yeast display, Sf9 membrane polyspecificity reagent, FACS + sequencing; frameworks hold sequencing errors
Outline: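 Galactose-induced (36–48 hours) yeast carrying a synthetic nanobody display library were exposed to 10% biotinylated, detergent-solubilized Sf9 membrane reagent at 4 °C for 1 hour. FACS followed streptavidin microbead enrichment, using low and high (top ~1%) gates for expression (anti-HA) and reagent binding (streptavidin). Colony PCR, MiSeq 2 × 250 sequencing and CDR-length filtering followed. Labels for polyreactivity reflect the gate of origin.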

Sequence: QVQLVESGGGLVQAGGSLRLSCAASGSTFRDNAMGWYRQAPGKERELVAAITVIDGTTYYADSVKGRFTISRDYAKNTVYLQMNSLKPEDTAVYYCADDTIWYEYYYWGQGTQVTVSS
- polyreactivity (PSR sort gate): low polyreactivity

Sequence: QVQLVESGGCLVQAGGSLRLSCAASGRIFRYNTMGWYRQAPGKEREFVASISNGGSTNYADSVKGRFTISRDNAKNTVYLQMNSLKPEDTAVYYCNADVPSDGYPGYPGGFESWGQGTQVTVSS
- polyreactivity (PSR sort gate): low polyreactivity

Sequence: QVQLVESRGRLLQAGGSLRLSCAASGRISHINAMGCSIQAPGKERELVAGIRGRGGSTYYADSVKGRFTISRDNAKNSVYLQMNSLKPEDTEVYYCAARGWELIRTDPFDYWGQGSQVTVSS
- polyreactivity (PSR sort gate): high polyreactivity

Sequence: QVQLVESGGGLVQAGGRLRLSCAASGLIIEWYAMGWFRQAPGKERELVAAITGRGSSTFYADSVKGRFTISRDNAKNTVYLQMNSLKPEDTGVYYCAVATVKQYRSDYWGQGTQVTVSS
- polyreactivity (PSR sort gate): low polyreactivity

Sequence: QVQHVESGRGLVQAGGSLRLSCAASGSIFSSYARGWSREAPGKERELVAAISQSGGDTYYADSVKGRFTISRDNAKNTVYLQMKSLKPEDTAVYYCAASVWYYPMDYWGQGTQVTVSS
- polyreactivity (PSR sort gate): low polyreactivity

Sequence: QVQLVESWGGLVQAGGSLRLSCAASRIIFRWYAMGWYRKAPGTERELVAAITSDGNTYYADSVKGRFTISRDNAKNTVYLQMNSLKPEDTAVYYCAARLSYYCRMNYWGQGTQVNVSS
- polyreactivity (PSR sort gate): high polyreactivity

Sequence: QVQLVESGGGLVQAGGSLGLTCAASGFIFLDYTMVWYRQAPGIERELVATINASDGSTYYADSVKGRFTISRDNAKKTVYLQMNSLKPEDTAVYYCNTKVISRTSERRGNGFTRYDYWGQGTQVTVSS
- polyreactivity (PSR sort gate): low polyreactivity

Sequence: QVQLVETRGGLVQAGGILRFSCAASGFTFSSNDMGWYRQAPAKEREFVAVIDSGDITNYADSVKGRFTISRDNAKNTVYLQMNSLKPEDTAVYYCAARYYAAGIGSRYDYWGQGTQVTVSS
- polyreactivity (PSR sort gate): high polyreactivity

Sequence: QVQLVESGGGLVQAGGSLRLSCAASGRTFISNAMGWYRQAPGKERELVATISRRGGITYYADSVKGRFTISRDNSKNTVYLQMNSLKPEDTAVFYCNARNYPQGIYYWGQGTQVTLSS
- polyreactivity (PSR sort gate): high polyreactivity

Sequence: QVHLVESGGGLVKAGGSLRLSCAASGLTFYVYTMGWYRQAPGKERELVAVISSGDSTYYADSVKGRFTISRDNAKNTVYLQMNSLKPEDTAVYYCAAGTHYLIVRYGLYDYWGQGTQVYVSS
- polyreactivity (PSR sort gate): low polyreactivity

Sequence: QVQLVESGGGLVQAGGSLRLSCAASGSICGTYAMGWYRQAPGKERELVARITRGVSTNYADSVKGRFTISRDNAKNTVYLQMTSLKPEDTAVYYCAAESGNRYEYWGQGTQVTVSS
- polyreactivity (PSR sort gate): low polyreactivity

Sequence: QVQLVESGGGLVQAGGSLRLSCAASGSIFGYNAMGWYRQAPGKERELVAAISLTTGSTYYADSVKGRFTISRDNAKNTVYLQMNCLNPEDTAVYYCAAVDADYYYWGQGTQVTVSS
- polyreactivity (PSR sort gate): high polyreactivity

Sequence: QVQLVESGGGLVQAGGSLRLSCAASGSTFVIYGMGWYRQAPGKERELVADITWIGGSTYYADSVKGRFTISRDNAKNTVYLQMNSLKPEDTAVYYCNADVRYGRDHWGQGTQVTVSS
- polyreactivity (PSR sort gate): low polyreactivity

Sequence: QDQLVESGGGLVQAGGSLRLSCAASGRIFGLYAMGCYRPAPGKERELVAAYADSVKGRFTISRDNAKNTVYLQMNSLKPEDTAVYYCAKGPLYAGYSIHLRDFNYWGQGTQVTVSS
- polyreactivity (PSR sort gate): low polyreactivity

Sequence: QVQLVESGGGLVQAGGSLRLSCAASGSILRYYAMGWYRQAPGKERELVADISTSGGSTYYADSVKGRFTISRDNAKNTFDLQMISLKPEDTAVYYCASAYYRYLIYIGKFDYWGQGTQVTVSS
- polyreactivity (PSR sort gate): high polyreactivity

Sequence: QVQLVESGGGLVQAGGSLRLSCAASGRTFDDYAMGWDRQAPGKERELVAAITQNGRDTYADSVKGRFTISRDNSKKYRLFTDVQPVTGRYRGLLLRCVRYEVNLYDYWGQGTQVTVST
- polyreactivity (PSR sort gate): low polyreactivity

Sequence: QVQLVESGGGLVQAGCSLRLSCAASGSIFYGYAMGWYRQAPGKERELVAAISYSGDRTYYADSVKGRFTISRDNAKNSVYLQMNSLKPEDTAVYYCAAQRRYGDDYWGQGTQVTVSS
- polyreactivity (PSR sort gate): high polyreactivity

Reference: the nanobody polyreactivity screen of Harvey et al. (2022)
